Results reported in patent US6737435B1, “Indole derivatives and their use as MCP-1 antagonist” (AstraZeneca AB, priority 1999, dated 2004).
pEC50, pIC50, pKd: −log10 of the molar value.

What was measured:
MCP-1 receptor B (CCR2B) = biological target: T1, MCP-1 receptor B (CCR2B) (Homo sapiens, UniProt P41597); assay: hMCP-1 receptor binding assay (125I-MCP-1, CHO-CCR2B cell membranes)
T1 construct: expressed in transfected cells; host or cells: CHO-K1 (clone 7, CHO-CCR2B), stably transfected with pCDNA3/CCR2B; membrane fragments
T1 sequence (P41597 1-360 isoform P41597-2): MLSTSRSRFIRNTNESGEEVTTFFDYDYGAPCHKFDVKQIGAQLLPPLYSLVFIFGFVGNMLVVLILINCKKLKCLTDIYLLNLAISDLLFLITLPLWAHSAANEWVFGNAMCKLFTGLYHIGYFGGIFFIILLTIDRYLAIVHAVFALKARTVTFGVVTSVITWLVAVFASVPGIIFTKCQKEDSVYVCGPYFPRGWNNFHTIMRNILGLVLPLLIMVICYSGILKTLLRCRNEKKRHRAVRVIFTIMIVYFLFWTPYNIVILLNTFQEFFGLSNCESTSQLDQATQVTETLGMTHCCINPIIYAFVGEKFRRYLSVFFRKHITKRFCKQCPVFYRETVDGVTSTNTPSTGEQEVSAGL
From the text: The MCP-1 receptor B (CCR2B) cDNA was cloned by PCR from THP-1 cell RNA using suitable oligonucleotide primers based on the published MCP-1 receptor sequences (Charo et al., 1994, Proc. Natl. Acad. Sci. USA, 91, 2752). The resulting PCR products were cloned into vector PCR-II™ (InVitrogen, San Diego, Calif.). Error free CCR2B cDNA was subcloned as a Hind III-Not I fragment into the eukaryotic expression vector pCDNA3 (InVitrogen) to generate pCDNA3/CC-CKR2A and pCDNA3/CCR2B respectively.
Linearised pCDNA3/CCR2B DNA was transfected into CHO-K1 cells by calcium phosphate precipitation (Wigler et al., 1979, Cell, 16, 777). Transfected cells were selected by the addition of Geneticin Sulphate (G418, Gibco BRL) at 1 mg/ml, 24 hours after the cells had been transfected. Preparation of RNA and Northern blotting were carried out as described previously (Needham et al., 1995, Prot. Express. Purific., 6, 134). CHO-K1 clone 7 (CHO-CCR2B) was identified as the highest MCP-1 receptor B expresser.
CHO-CCR2B cells were grown in DMEM supplemented with 10% foetal calf serum, 2 mM glutamine, 1×Non-Essential Amino Acids, 1×Hypoxanthine and Thymidine Supplement and Penicillin-Streptomycin (at 50 μg streptomycin/ml, Gibco BRL). Membrane fragments were prepared using cell lysis/differential centrifugation methods as described previously (Siciliano et al., 1990, J. Biol. Chem., 265, 19658). […]

THP-1 cells [1] = assay: MCP-1 mediated calcium flux in THP-1 cells; assay type: cell-based, human; conditions: stimulation of THP-1 cells with hMCP-1, FURA-2; read-out: EC50 of rise in [Ca2+]i
Procedure: The human monocytic cell line THP-1 was grown in a synthetic cell culture medium RPMI 1640 supplemented with 10% foetal calf serum, 6 mM glutamine and Penicillin-Streptomycin (at 50 μg streptomycin/ml, Gibco BRL). THP-1 cells were washed in HBSS (lacking Ca^2+ and Mg^2+)+1 mg/ml BSA and resuspended in the same buffer at a density of 3×10^6 cells/ml. The cells were then loaded with […] FURA-2/AM for 30 min at 37° C., washed twice in HBSS, and resuspended at 1×10^6 cells/ml. THP-1 cell suspension (0.9 ml) was added to a 5 ml disposable cuvette containing a magnetic stirrer bar and 2.1 ml of prewarmed (37° C.) HBSS containing 1 mg/ml BSA, 1 mM MgCl2 and 2 mM CaCl2. The cuvette was placed in a fluorescence spectrophotometer (Perkin Elmer, Norwalk, Conn.) and preincubated for 4 min at 37° C. with stirring. Fluorescence was recorded over 70 sec and cells were stimulated by addition of hMCP-1 to the cuvette after 10 sec. [Ca^2+]i was measured by excitation at 340 nm and 380 nm alternately and subsequent measurement of the intensity of the fluorescence emission at 510 nm.
where the Kd for FURA-2 Ca^2+ complex at 37° C. was taken to be 224 nm. […]

THP-1 cells [2] = assay: hMCP-1 mediated chemotaxis; assay type: cell-based, human; conditions: biphasic response
Procedure: In vitro chemotaxis assays were performed using the human monocytic cell line THP-1. Cell migration through polycarbonate membranes was measured by enumerating those passing through either directly by Coulter counting or indirectly by use of a colourimetric viability assay measuring the cleavage of a tetrazolium salt by the mitochondrial respiratory chain (Scudiero D. A. et al. 1988, Cancer Res., 48, 4827-4833).
Chemoattractants were introduced into a 96-well microtitre plate which forms the lower well of a chemotaxis chamber fitted with a PVP-free 5 μm poresize polycarbonate adhesive framed filter membrane (NeuroProbe MB series, Cabin John, Md. 20818, USA) according to the manufacturer's instructions. […] The plate was incubated at 37° C. for 3 h and the absorbance of the soluble formazan product was read on a microtitre plate reader at 450 nm. The data was input into a spreadsheet, corrected for any random migration in the absence of chemoattractant and the average absorbance values, standard error of the mean, and significance tests were calculated. hMCP-1 induced concentration dependent cell migration with a characteristic biphasic response, maximal […]. […]

MCP-1: Human Monocyte Chemoattractant Protein-1, the chemokine ligand of the CCR2 receptor
pIC50 (MCP-1 receptor B (CCR2B); cold competition, 100 pM 125I-labeled MCP-1, CHO-CCR2B membrane fragments): 9.96 | pKd (MCP-1 receptor B (CCR2B); equilibrium binding, CHO-CCR2B membrane fragments): 9.92 | pEC50 (THP-1 cells [1]): ~8.70 | concentration of maximal cell migration (THP-1 cells [2]): 0.5-1.0 nm
